Test results reported in publication PMC12489474, “New structural insights into the control of the retinoic acid receptors RAR/RXR by DNA, ligands, and transcriptional coregulators” (Nucleic Acids Research, 2025).

What was measured:
[1] = target: T1, RAR/RXR heterodimer (RARAΔABF with RXRAΔAB) (mouse (printed as MmRARAΔABF; the same …, UniProt P11416 82-421; P19793 126-462); assay: MST; RAR/RXR bound to DR0 DNA (RR–DR0), no ligand (apo); heterodimer titrated against labelled NCoRNID; same buffer, 22°C; settings: both partners purified
T1 construct: retinoic acid receptor alpha, residues 82-421 of Uniprot entry P11416; as the chain of m1; as the chain of m2; 1:1 heterodimer by SEC-MALS; this is told in the format of each assay; also called RR–DR0; source: E. coli BL21 (DE3); RAR and RXR purified separately, mixed (2-fold excess of RAR), heterodimer purified by SEC (Superdex 200); not shown: His6, N-terminal, cleaved
T1 sequence (looked up) 1: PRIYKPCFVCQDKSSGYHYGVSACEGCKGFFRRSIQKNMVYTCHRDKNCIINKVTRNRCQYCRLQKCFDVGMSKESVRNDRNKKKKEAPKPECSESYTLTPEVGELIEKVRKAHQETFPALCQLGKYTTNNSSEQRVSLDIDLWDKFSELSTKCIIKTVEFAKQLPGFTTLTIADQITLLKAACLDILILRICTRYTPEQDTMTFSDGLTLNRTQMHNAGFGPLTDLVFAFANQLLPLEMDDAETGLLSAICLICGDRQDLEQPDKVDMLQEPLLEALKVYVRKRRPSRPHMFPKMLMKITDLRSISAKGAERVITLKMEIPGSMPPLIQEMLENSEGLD
T1 sequence (looked up) 2: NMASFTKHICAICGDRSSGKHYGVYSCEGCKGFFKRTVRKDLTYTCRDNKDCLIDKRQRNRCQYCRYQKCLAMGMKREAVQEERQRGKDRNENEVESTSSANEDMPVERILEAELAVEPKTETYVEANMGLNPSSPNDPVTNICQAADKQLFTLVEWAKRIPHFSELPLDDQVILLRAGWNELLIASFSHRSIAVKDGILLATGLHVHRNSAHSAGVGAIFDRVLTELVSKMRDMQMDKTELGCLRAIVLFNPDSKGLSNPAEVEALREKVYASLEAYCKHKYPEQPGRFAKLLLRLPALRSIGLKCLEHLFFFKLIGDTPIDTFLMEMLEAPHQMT

[2] = target: T1, RAR/RXR heterodimer (RARAΔABF with …); assay: MST; RR–DR5 with BMS493; heterodimer titrated against labelled NCoRNID; same buffer, 22°C; settings: both partners purified
[3] = target: T1, RAR/RXR heterodimer (RARAΔABF with …); assay: MST; RAR/RXR without DNA, with BMS493; heterodimer titrated against labelled NCoRNID; same buffer, 22°C; settings: both partners purified
[4] = target: T1, RAR/RXR heterodimer (RARAΔABF with …); assay: MST; RAR/RXR bound to IR0 DNA (RR–IR0), no ligand (apo); heterodimer titrated against labelled NCoRNID; same buffer, 22°C; settings: both partners purified
[5] = target: T1, RAR/RXR heterodimer (RARAΔABF with …); assay: MST; RR–DR0 with BMS493; heterodimer titrated against labelled NCoRNID; same buffer, 22°C; settings: both partners purified
[6] = target: T1, RAR/RXR heterodimer (RARAΔABF with …); assay: MST; RR–IR0 with BMS493; heterodimer titrated against labelled NCoRNID; same buffer, 22°C; settings: both partners purified
[7] = target: T1, RAR/RXR heterodimer (RARAΔABF with …); assay: MST; RAR/RXR bound to DR5 DNA (RR–DR5), no ligand (apo); heterodimer titrated against labelled NCoRNID; same buffer, 22°C; settings: both partners purified
[8] = target: T1, RAR/RXR heterodimer (RARAΔABF with …); assay: MST; RAR/RXR without DNA, no ligand (apo); heterodimer in 2-fold serial dilution from 20 μM, added to an equal volume of 80 nM Atto647N-NCoRNID; 20 mM Tris–HCl pH 7.5, 75 mM NaCl, 75 mM KCl, 2 mM CHAPS, 4 mM MgCl2, 5% glycerol, 0.05% Tween-20; 22°C; settings: both partners purified
[9] = target: T1, RAR/RXR heterodimer (RARAΔABF with …); assay: MST; RAR/RXR bound to DR1 DNA (RR–DR1), no ligand (apo); heterodimer titrated against labelled NCoRNID; same buffer, 22°C; settings: both partners purified
[10] = target: T1, RAR/RXR heterodimer (RARAΔABF with …); assay: MST; RR–DR1 with the agonists AM580 + CD3254; heterodimer titrated against labelled NCoRNID; same buffer, 22°C; settings: both partners purified
[11] = target: T1, RAR/RXR heterodimer (RARAΔABF with …); assay: MST; RR–DR1 with BMS493; heterodimer titrated against labelled NCoRNID; same buffer, 22°C; settings: both partners purified
[12] = target: RARalpha dAB dF;RXRalpha dAB;NCoR NID (Mus musculus / Homo sapiens (Methods …, UniProt P11416;P19793;Q60974 82-421;126-462;2059-2325, ||)); assay: SEC-SAXS; BMS493; Fluorescence anisotropy: 20 mM Tris-HCl pH 7.5, 75 mM NaCl, 75 mM KCl, 2 mM CHAPS, 4 mM MgCl2, 2 mM TCEP, 10% glycerol, 0.5 nM Cy5-DNA, 4 uM ligands, 294 K; settings: protein: recombinant;recombinant;recombinant; tags: N-terminal His6 (pET15b); copies: 1;1;1; blunt
[13] = target: RARalpha dAB dF;RXRalpha dAB (Mus musculus / Homo sapiens (Methods …, UniProt P11416;P19793 82-421;126-462, |)); assay: SEC-SAXS; apo; Fluorescence anisotropy: 20 mM Tris-HCl pH 7.5, 75 mM NaCl, 75 mM KCl, 2 mM CHAPS, 4 mM MgCl2, 2 mM TCEP, 10% glycerol, 0.5 nM Cy5-DNA, 4 uM ligands, 294 K; settings: protein: recombinant;recombinant; tags: N-terminal His6 (pET15b); copies: 1;1; blunt

B1: Atto647N-labeled NCoRNID (domain or fragment, UniProt Q60974 2059-2325, looked up)
chain: QVPRTHRLITLADHICQIITQDFARNQVPSQASTSTFQTSPSALSSTPVRTKTSSRYSPESQSQTVLHPRPGPRVSPENLVDKSRGSRPGKSPERSHIPSEPYEPISPPQGPAVHEKQDSMLLLSQRGVDPAEQRSDSRSPGSISYLPSFFTKLESTSPMVKSKKQEIFRKLNSSGGGDSDMAAAQPGTEIFNLPAVTTSGAVSSRSHSFADPASNLGLEDIIRKALMGSFDDKVEDHGVVMSHPVGIMPGSASTSVVTSSEARRDE
modifications: Atto647N label (site not stated)
- Kd [1]: 414 nM
- Kd [2]: 335 nM
- Kd [3]: 368 nM
- Kd [4]: 289 nM
- Kd [5]: 244 nM
- Kd [6]: 289 nM
- Kd [7]: 283 nM
- Kd [8]: 490 nM
- Kd [9]: 531 nM
- Kd [10]: 5300 nM
- Kd [11]: 499 nM

B2: DR0L Hoxb13 (dsDNA)
DNA 1: CTTCCAGGAAGGTCAAGGCCAAGTTGAAAG
DNA 2: CTTTCAACTTGGCCTTGACCTTCCTGGAAG
- binding result [12]: binds
- binding result [13]: binds
